# Laboratory results: PMC4686794, “Obesity-related known and candidate SNP markers can significantly change affinity of TATA-binding protein for human gene promoters”
# B1: LEP -35g (rs201381696 minor) (dsDNA)
# DNA 1: ATCGGGCCGCTGTAAGAGGGGCGGGC
# DNA 2: GCCCGCCCCTCTTACAGCGGCCCGAT
# B2: GCG -41g (rs183433761 minor) (dsDNA)
# DNA 1: AGCTGGAGAGTGTATAAAAGCAGTGC
# DNA 2: GCACTGCTTTTATACACTCTCCAGCT
# B3: LEP -38a (rs200487063 minor) (dsDNA)
# DNA 1: ATCGGGCCACTATAAGAGGGGCGGGC
# DNA 2: GCCCGCCCCTCTTATAGTGGCCCGAT
# B4: GCG WT (dsDNA)
# DNA 1: AGCTGGAGAGTATATAAAAGCAGTGC
# DNA 2: GCACTGCTTTTATATACTCTCCAGCT
# B5: LEP WT (dsDNA)
# DNA 1: ATCGGGCCGCTATAAGAGGGGCGGGC
# DNA 2: GCCCGCCCCTCTTATAGCGGCCCGAT
# Experiments:
# Settings in all cases: protein: recombinant; label: 32P on both strands; blunt
# [1] = target: T1, TATA-binding protein (TBP) (Homo sapiens, UniProt P20226 1-339); test: EMSA (kinetic, kd/ka); 5 mM Mg2+; ka 5.6e3 M-1s-1, kd 13.0e-4 s-1; 20 mM HEPES-KOH pH 7.6, 5 mM MgCl2, 70 mM KCl, 1 mM DTT, 100 ug/mL BSA, 0.01% NP-40, 5% glycerol, 25 C; 0.3 nM active TBP, ODN 10-60 nM
# T1 sequence (P20226 whole entry): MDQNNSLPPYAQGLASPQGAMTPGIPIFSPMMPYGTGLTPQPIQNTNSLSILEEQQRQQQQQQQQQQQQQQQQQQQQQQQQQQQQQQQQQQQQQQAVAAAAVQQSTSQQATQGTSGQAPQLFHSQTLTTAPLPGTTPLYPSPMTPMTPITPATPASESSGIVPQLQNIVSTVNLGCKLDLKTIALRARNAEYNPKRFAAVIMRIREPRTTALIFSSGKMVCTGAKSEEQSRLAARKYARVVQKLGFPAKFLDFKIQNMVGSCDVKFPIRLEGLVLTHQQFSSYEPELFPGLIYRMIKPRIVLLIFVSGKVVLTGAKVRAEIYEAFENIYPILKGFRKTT
# [2] = target: T1, TATA-binding protein (TBP); test: EMSA (kinetic, kd/ka); 5 mM Mg2+; ka 30e3 M-1s-1, kd 6e-4 s-1; 20 mM HEPES-KOH pH 7.6, 5 mM MgCl2, 70 mM KCl, 1 mM DTT, 100 ug/mL BSA, 0.01% NP-40, 5% glycerol, 25 C; 0.3 nM active TBP, ODN 10-60 nM
# [3] = target: T1, TATA-binding protein (TBP); test: EMSA (kinetic, kd/ka); 5 mM Mg2+; ka 3.5e3 M-1s-1, kd 1.5e-4 s-1; 20 mM HEPES-KOH pH 7.6, 5 mM MgCl2, 70 mM KCl, 1 mM DTT, 100 ug/mL BSA, 0.01% NP-40, 5% glycerol, 25 C; 0.3 nM active TBP, ODN 10-60 nM
# [4] = target: T1, TATA-binding protein (TBP); test: EMSA (kinetic, kd/ka); 5 mM Mg2+; ka 70e3 M-1s-1, kd 5e-4 s-1; 20 mM HEPES-KOH pH 7.6, 5 mM MgCl2, 70 mM KCl, 1 mM DTT, 100 ug/mL BSA, 0.01% NP-40, 5% glycerol, 25 C; 0.3 nM active TBP, ODN 10-60 nM
# [5] = target: T1, TATA-binding protein (TBP); test: EMSA (kinetic, kd/ka); 5 mM Mg2+; ka 2.3e3 M-1s-1, kd 1.8e-4 s-1; 20 mM HEPES-KOH pH 7.6, 5 mM MgCl2, 70 mM KCl, 1 mM DTT, 100 ug/mL BSA, 0.01% NP-40, 5% glycerol, 25 C; 0.3 nM active TBP, ODN 10-60 nM
binder,measurement,setting,value
B1,Kd,[1],232 nM
B2,Kd,[2],18 nM
B3,Kd,[3],43 nM
B4,Kd,[4],8 nM
B5,Kd,[5],78 nM
